Reference: paper PMC7263513 (bioRxiv, 2020)

B1: C154 (antibody, V domains shown)
VH: QVQLVESGGGVVQPGRSLRLSCAASGFTFSRYGMHWVRQAPGKGLEWVAVMSYDGSSKYYADSVKGRFTISRDNSKNTLCLQMNSLRAEDTAVYYCAKQAGPYCSGGSCYSAPFDYWGQGTLVTVSS
VL: DIQMTQSPSSLSASVGDRVTITCQASQGISNYLNWYQQKPGKAPKLLIYDASNLETGVPSRFSGSGSGTDFTFTISSLQPEDIATYYCQQYDNLPITFGQGTRLEIK
B2: C202 (antibody, V domains shown)
VH: EVQLVESGGGLVQPGGSLRLSCAASGFTVSSNYMSWVRQAPGKGLEWVSLIYSGGSTYYADSVKGRFTISRDNSKNTLYLQMNSLRAEDTAVYYCARDTLGRGGDYWGQGTLVTVSS
VL: DIQLTQSPSSLSASVGDRVTITCQASQDISNYLNWYQQKPGKAPKLLIYDASNLETGVPSRFSGSGSGTDFTFTISSLQPEDIATYYCQQYDNLPRSFGQGTKLEIK
B3: C204 (antibody, V domains shown)
VH: EVQLLESGGGLEQPGGSLRLSCAASGFTFSTYAMSWVRQAPGKGLEWVSAISGSGAGTFYADSVKGRFTISRDNSKNTLYLQMNSLRAEDTAVYYCARESDCGSTSCYQVGWFDPWGQGTLVTVSS
VL: not shown
B4: C201 (antibody, V domains shown)
VH: EVQLVESGGGLVQPGRSLRLSCAASGFTFDDYAMHWVRQAPGKGLEWVSGISWNSGSIGYADSVKGRFTISRDNAKNSLYLQMNSLRAEDTALYYCVKGVEYSSSSNFDYWGQGTLVTVSS
VL: IRMTQSPSSVSASVGDRVTITCRASQGISSWLAWYQQKPGKAPKLLIYVESSLQSGVPSRFSGSGSGTDFTLTISSLQPEDFATYYCQQANSFPLTFGGGTKVEIK
B5: C164 (antibody, V domains shown)
VH: EVQLVESGGGLVQPGGSLRLSCAASGFSVSTKYMTWVRQAPGKGLEWVSVLYSGGSDYYADSVKGRFTISRDNSKNALYLQMNSLRVEDTGVYYCARDSSEVRDHPGHPGRSVGAFDIWGQGTMVTVSS
VL: QSALTQPASVSGSPGQSITISCTGTSNDVGSYTLVSWYQQYPGKAPKLLIFEVTKRSSGISNRFSGSKSGNTASLTISGLQGEDEADYYCCSYAGASTFVFGGGTKLTVL
B6: C151 (antibody, V domains shown)
VH: EVQLVESGGGLVKPGGSLRLSCAASGFTFSSYNMNWVRQAPGKGLEWVSCISSSSSYIYYADSVKGRFTISRDNAKNSLYLQMNSLRAEDTAVYYCARERGYDGGKTPPFLGGQGTLVTVSS
VL: NFMLTQPHSVSESPGKTVTISCTGSSGSIASNYVQWYQQRPGSAPTTVIYEDNQRPSGVPDRFSGSIDSSSNSASLTISGLKTEDEADYYCQSYDSSNYWVFGGGTKLTVL
B7: C165 (antibody, V domains shown)
VH: QVQLVQSGAEVKKPGSSVKVSCKASGGTFSSYAINWVRQAPGQGLEWMGRIIPIVGIANYAQKFQGRVTITADKSSSTAYMELSSLRSEDTAVYYCARDLLDPQLDDAFDIWGQGTMVTVSS
VL: not shown
B8: C155 (antibody, V domains shown)
VH: EVQLVESGGGLIQPGGSLRLSCAASGFIVSSNYMSWVRQAPGKGLEWVSVIYSGGSTFYADSVKGRFTISRDNSKNTLYLQMNSLRAEDTAVYYCARDFGEFYFDYWGQGTLVTVSS
VL: EIVMTQSPATLSVSPGERATLSCRASQSVSSNLAWYQQKPGQAPRLLIYGASTRATAIPARFSGSGSGTEFTLTISSLQSEDFAVYYCQQYNNWPRTFGQGTKVEIK
B9: C211 (antibody, V domains shown)
VH: EVQLVESGGGLVQPGGSLRLSCAASEFTVSSNYMSWVRQAPGKGLEWVSVIYSGGSTFYADSVKGRFTISRDNSKNTLYLQMNSLRPEDTAVYYCARDYGDFYFDFWGQGTLVTVSS
VL: EIVMTQSPATLSVSPGERATLSCRASQSVSSNLAWYQQKPGQGPRLLIYGASTRATGIPARFSGSGSGTEFTLTISSLQSEDFAVYYCQQYNNWPRTFGQGTKVEIK
B10: C210 (antibody, V domains shown)
VH: EVQLVESGGGLIQPGGSLRLSCAASGFTVSSNYMSWVRQAPGKGLEWVSVIYSGGSTFYADSVKGRFTFSRDNSKNTLYLQMNSLRAEDTAVYYCARDLMAYGMDVWGQGTTVTVSS
VL: DIQLTQSPSFLSASVGDRVTITCRASQGISSYLAWYQQKPGKAPKLLIYAASTLQSGVPSRFSGSGSGTEFTLTISSLQPEDFATYYCQQLNSYPQGTFGGGTKVEIK
B11: C148 (antibody, V domains shown)
VH: EVQLVESGGGLVQPGGSQRLSCAASGFTVSSNYMSWIRQAPGKGLEWVSVIYSGGSAYYVDSVKGRFTISRDNSKNTLYLQMNSLRPEDTAVYYCARIANYMDVWGKGTTVTVSS
VL: EIVMTQSPATLSVSPGERATLSCRASQSVSSHLAWYQQKPGQAPRLLIYGASTRATGIPTRFSGSGSGTEFTLTISSLQSEDFAVYYCQQYNNWPPLTFGGGTKVEIK
B12: C207 (antibody, V domains shown)
VH: not shown
VL: EIVLTQSPATLSLSPGERATLSCRASQSVSSYLAWYQQKPGQAPRLLIYDASNRATGIPARFSGSGSGTDFTLTISSLEPEDFAVYYCQQRSNWPRGFGQGTKVEIK
B13: C156 (antibody, V domains shown)
VH: QVQLVESGGGVVQPGRSLRLSCAASGFTFSNYGMHWVRQAPGKGLEWVAVISYDGNNKYYADSVKGRFTISRDNSKNTLYLQMNSLRAEDTAVYYCAKDPFPLAVAGTGYFDYWGQGTLVTVSS
VL: SYELTQPPSVSVAPGQTARISCGGNNIGSKNVHWYQQKPGQAPVLVVYDDSDRPSGIPERFSGSNSGNTATLTISRVEAGDEADYYCQVWDSSSDPWVFGGGTKLTVL
B14: C153 (antibody, V domains shown)
VH: EVQLVESGGGLIQPGGSLRLSCAASGFTVSSNYMSWVRQAPGKGLEWVSVIYSGYSTYYVDSVKGRFTISRDNSKNTLYLQMNSLRAEDTAVYYCARVGGAHSGYDGSFDYWGQGTLVTVSS
VL: QSALTQPASVSGSPGQSITISCTGTSSDVGSYNLVSWYQQHPGKAPKLMIYEGSKRPSGVSNRFSGSKSGNTASLTISGLQAEDEADYYCCSYAGSSTWVFGGGTKLTVL
B15: C145 (antibody, V domains shown)
VH: EVQLVESGGGLIQPGGSLRLSCAASGFSVSSNYMSWVRQAPGKGLEWVSVIYSGGSTYYADSVKGRFTISRDNSKNTLYLQMNSLRAEDTAVYYCAREGEVEGYYDFWSGYSRDRYYFDYWGQGTLVTVSS
VL: QSALTQPASVSGSPGQSITISCTGTSSDVGGYNYVSWYQQHPGKAPKLMIYDVSNRPSGVSNRFSGSKSGNTASLTISGLQAEDEADYYCSSYTSSTTRVFGTGTRVTVL
B16: C150 (antibody, V domains shown)
VH: EVQLVESGGGLVQPGGSLRLSCVASGFTFSSYWMHWVRQVPGKGPVWVSHINSEGSSTNYADSVRGRFTISRDNAKDTLYLQMNNLRAEDTAVYYCARPTAVAAAGNYFYYYGMDVWGQGTTVTVSS
VL: QSALTQPASVSGSPGQSITISCTGTSSDVGYYNFVSWYQQHPGKAPKLMIYEVSNRPSGVSNRFSGSKSGNTASLIISGLQAEDEADYYCSSYRSSSTLVFGGGTKLTVL

target: SARS-CoV-2 receptor binding domain (RBD) (Severe acute respiratory syndrome …, UniProt P0DTC2); test: cell-based or functional assay

Binder | IC50 of neutralisation of SARS-CoV-2 pseudovirus (293T_(ACE2) cells)
B1 | 0.435 µg/mL
B2 | > 1 µg/mL
B3 | > 1 µg/mL
B4 | > 1 µg/mL
B5 | 0.239 µg/mL
B6 | 0.0318 µg/mL
B7 | 0.0408 µg/mL
B8 | 0.011 µg/mL
B9 | 0.0128 µg/mL
B10 | 0.0507 µg/mL
B11 | > 1 µg/mL
B12 | 0.159 µg/mL
B13 | > 1 µg/mL
B14 | 0.0707 µg/mL
B15 | 0.00304 µg/mL
B16 | > 1 µg/mL
